Measurements as given in patent publication US20090068174A1, “THERAPEUTIC ALKALINE PROTEASE COMPOSITIONS AND USE IN FACILITATING THE TRANSPORT OF AGENTS ACROSS THE GASTROINTESTINAL MUCOSAL LINING” (Kansas University Medical Center Research Institute, Inc., priority 2007, published 2009).
Entries after “also recorded” stand apart in the source; their conditions may differ.

T1: human IFN-γ (Homo sapiens, UniProt P01579)
T1 sequence (P01579 24-166): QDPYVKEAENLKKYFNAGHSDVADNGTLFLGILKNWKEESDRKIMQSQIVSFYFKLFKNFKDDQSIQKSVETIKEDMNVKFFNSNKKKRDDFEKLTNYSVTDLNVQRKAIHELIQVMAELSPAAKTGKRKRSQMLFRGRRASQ

T2: TNF-α (Mus musculus, UniProt P06804)
T2 sequence (P06804 80-235 limits assumed): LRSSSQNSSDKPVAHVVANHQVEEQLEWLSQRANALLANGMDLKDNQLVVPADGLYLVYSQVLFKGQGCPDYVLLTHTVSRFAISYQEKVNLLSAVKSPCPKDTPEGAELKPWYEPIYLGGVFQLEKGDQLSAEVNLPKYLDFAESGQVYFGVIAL

B1: Alkaline Protease: Aspergillus oryzae alkaline protease (oryzin), SEQ ID NO: 2, purified from the protease powder of Example 1 (protein, listed as Aspergillus oryzae)
chain: MQSIKRTLLLLGAILPAVLGAPVQETRRAAEKLPGKYIVTFKPGIDEAKIQEHTTWATNIHQRSLERRGATGGDLPVGIERNYKINKFAAYAGSFDDATIEEIRKNEDVAYVEEDQIYYLDGLTTQKSAPWGLGSISHKGQQSTDYIYDTSAGEGTYAYVVDSGVNVDHEEFEGRASKAYNAAGGQHVDSIGHGTHVSGTIAGKTYGIAKKASILSVKVFQGESSSTSVILDGFNWAANDIVSKKRTSKAAINMSLGGGYSKAFNDAVENAFEQGVLSVVAAGNENSDAGQTSPASAPDAITVAAIQKSNNRASFSNFGKVVDVFAPGQDILSAWIGSSSATNTISGTSMATPHIVGLSLYLAALENLDGPAAVTKRIKELATKDWKDVKGSPNLLAYNGNA
B2: 26 kDa Protease: A. oryzae protease cloned recently by Novozyme, labeled the 26 kDa protease, SEQ ID NO: 3 (protein, listed as Aspergillus oryzae)
chain: HASADAWASSKAISSTSSPSSFKMRFISVSSLLLALAPALNAVPVEVAGSAQGLDVTLSQVGNTRIKAWKNTGSEDVTFVHLNFFKDAAPVQKVSLFRNATEVQFQGIKQRLITEGLSDDALTTLAPGATIEDEFDIASTSDLSEGGTITINSNGLVPITTDNKVTGYIPFTSNELSIDVDAAEAASVTQAVKILERRTKVTSCSGSRLSALQTALRNTVSLARAAATAAQSGSSSRFQEYFKTTSSSTRSTVAARLNAVANEAASTSSGSTTYYCSDVYGYCSSNVLAYTLPSYNIIANCDLYYSYLPALTSTCHAQDQATTTLHEFTHAPGVYSPGTDDLGYGYSAATALSASQALLNADTYALFANAVNLNC

Columns and labels:
Salmon protamine = assay: Hydrolysis of salmon protamine sulfate (ninhydrin assay); assay type: biochemical; settings: 20 mM Tris-HCl, pH 7 or 8, 30 min at 37° C.
Description: Specific activity of the purified enzymes was determined by measuring hydrolysis of protamine sulfate and D-val-leu-lys-pNA. For the former, enzyme-substrate mixtures were prepared in 20 mM Tris-HCl, pH 7 or 8, and incubated for 30 min at 37° C. After precipitation with 14% trichloroacetic acid and removal of precipitated protein by centrifugation, the reaction mixtures were diluted in 500 mM sodium citrate buffer, pH 5, combined with 2% ninhydrin and boiled for 30 min. After dilution in 50% isopropanol, absorbance was measured at 570 nm wavelength, and results were referenced to leucine as a standard. Hydrolysis of D-val-leu-lys-pNA in 20 mM Tris-HCl buffer, pH 7, was determined by measuring absorbance at 405 nm wavelength every 10 sec over 10 min and calculating the change in absorbance (mOD units) per min per μg protein.
Protamine sulfate from salmon (Sigma, St. Louis, Mo.): 1% (10 mg/ml) solution in reaction buffer. Fushima et al use 2% and denature the protein by boiling for 30 min in 100 mM phosphate buffer, pH 7.0. […]
Procedure • 1. […] Read Absorbance at 570 nm (purple color) and calculate nanomoles by reference to a standard curve prepared with leucine. […] Activity of enzyme is expressed as nanomoles of leucine equivalents released per milligram of protein (endpoint assay) or nanomoles of leucine equivalents/min/μg protein (kinetic assay). • 10. […]

[1] = Biochemical properties of the purified proteases (Table 4): pH optimum, substrate specificity, metal requirements; settings: established by inventors
human IFN-γ = target: T1, human IFN-γ; assay: Human IFN-γ degradation (Western blotting); assay type: biochemical; settings: Western blot, antibody to carboxyl terminus
Description: Effects of the purified A. oryzae proteases on human recombinant IFN-γ: (A) protease powder prepared according to Example 1 (preparation); (B) alkaline protease; (C) deuterolysin; and (D) 26 kDa protease. 50 ng quantities of human IFN-γ were incubated at 37° C. for 18 hours with the indicated quantities of preparation, alkaline protease, 26 kDa protease or deuterolysin. Western blotting was then used to determine substrate specificity. C=control, buffer-treated IFN-γ.
Cleavage was evidenced by the disappearance of the native 17 kDa IFN-γ band, rather than the appearance of distinct cleavage peptides. Because the antibody used in this Western blot was specific for the carboxyl terminus of human IFN-γ, these enzymes attack the cytokine at the C terminus (e.g., there is a loss in reactivity with the anti-cytokine antibody, rather than the appearance of smaller peptide products).

TNF-α = target: T2, TNF-α; assay: Protease-treated TNF-α injected i.p. into mice, activated caspase-3 in intestine; assay type: in vivo; settings: TNF-α treated with protease for 2 h, intestine 1 h later
Description: TNF-α was first treated either with PBS, AP or D for 2 h, the reaction mixtures were inactivated by the addition of FBS, and the cytokine-protease mixtures were injected i.p. into mice. (A) One hour later the mice were euthanized, samples of their intestines were collected and fixed, and tissue sections were analyzed by immunohistology for the expression of activated caspase-3. These are the results are shown in which data are expressed in two forms: (B) the frequency distributions of sections expressing different levels of activated caspase-3; and (C) the percentages of tissue sections in which 10% or more of the villi stained for activated caspase-3.
A series of experiments was performed in which the activation of caspase-3 within the intestine was measured. […] One hour later the mice were euthanized, samples of their intestines were collected and fixed, and tissue sections were analyzed by immunohistology for the expression of activated caspase-3 (FIG. 21-22). […]
Mice were injected i.p. with 5 ng of recombinant mouse TNF-α or protease-treated TNF-α, and 2 cm segments of their duodenums were collected 1 h later. […] The sections were first treated with rabbit antibody to activated (cleaved) mouse caspase-3, and bound antibody was detected using a Histostain-SP kit. […] At least 48 sections were analyzed in this fashion from each mouse.

Molecule | Specific activity, Salmon protamine (Salmon protamine) | Substrate specificity [1] | Cleavage of human IFN-γ (human IFN-γ) | Ability of protease-treated TNF-α to activate caspase-3 in intestinal epithelial cells (TNF-α)
B1 | 951 nmoles Leucine/30 min./μg protein | Protamine > casein,; also recorded: hemoglobin; val-leu-lys | did not cleave human IFN-γ | destroyed the ability of the cytokine to activate caspase-3
B2 | 679 nmoles Leucine/30 min./μg protein | protamine | cleave human IFN-γ | 
